Target: T1, hEGFR-hIGg1Fc (SinoBiological) (human, UniProt P00533 25-645)
T1 construct: Bought reagent; also called human EGFR; human EGFR antigen; not shown: human IgG1 Fc
Assay: ELISA, coated hEGFR-hIgG1Fc

Binder	binding result
aPDL1ScFv-L1-aEGFRL (bispecific antibody, also called aPDL1 scfv-aEGFR fusion) heavy: QVQLQESGPGLVKPSETLSLTCTVSGGSVSSGDYYWTWIRQSPGKGLEWIGHIYYSGNTNYNPSLKSRLTISIDTSKTQFSLKLSSVTAADTAIYYCVRDRVTGAFDIWGQGTMVTVSSASTKGPSVFPLAPSSKSTSGGTAALGCLVKDYFPEPVTVSWNSGALTSGVHTFPAVLQSSGLYSLSSVVTVPSSSLGTQTYICNVNHKPSNTKVDKKVEPKSCDKTHTCPPCPAPPVAGPSVFLFPPKPKDTLMISRTPEVTCVVVDVSHEDPEVKFNWYVDGVEVHNAKTKPREEQYNSTYRVVSVLTVLHQDWLNGKEYKCKVSNKGLPSSIEKTISKAKGQPREPQVYTLPPSRDELTKNQVSLTCLVKGFYPSDIAVEWESNGQPENNYKTTPPVLDSDGSFFLYSKLTVDKSRWQQGNVFSCSVMHEALHNHYTQKSLSLSPGK light: not shown	binds
aPDL1ScFv-L2-aEGFRL (bispecific antibody, also called aPDL1 scfv-aEGFR fusion) heavy: QVQLQESGPGLVKPSETLSLTCTVSGGSVSSGDYYWTWIRQSPGKGLEWIGHIYYSGNTNYNPSLKSRLTISIDTSKTQFSLKLSSVTAADTAIYYCVRDRVTGAFDIWGQGTMVTVSSASTKGPSVFPLAPSSKSTSGGTAALGCLVKDYFPEPVTVSWNSGALTSGVHTFPAVLQSSGLYSLSSVVTVPSSSLGTQTYICNVNHKPSNTKVDKKVEPKSCDKTHTCPPCPAPPVAGPSVFLFPPKPKDTLMISRTPEVTCVVVDVSHEDPEVKFNWYVDGVEVHNAKTKPREEQYNSTYRVVSVLTVLHQDWLNGKEYKCKVSNKGLPSSIEKTISKAKGQPREPQVYTLPPSRDELTKNQVSLTCLVKGFYPSDIAVEWESNGQPENNYKTTPPVLDSDGSFFLYSKLTVDKSRWQQGNVFSCSVMHEALHNHYTQKSLSLSPGK light: not shown	binds
